The values below come from the Human Domainome abundance scans (Beltran et al. 2025).

Sequences and labels used below:
B1: Protein C-ets-1, residues 55 to 135; numbered along this chain, P14921 (parent)
chain: GFTKEQQRLGIPKDPRQWTETHVRDWVMWAVNEFSLKGVDFQKFCMNGAALCALGKDCFLELAPDFVGDILWEHLEILQKE

± gives the uncertainty stated by the source.

The data set covers variants of B1. The experiment in a line: abundance fitness (aPCA) (normalised: wild type 0, dead -1); higher = more abundant; growth selection in yeast, the domain comes from the species named. Particulars: Homo sapiens.
For GFTKEQQRLGIPKDPRQWTETHVRDWVMWAVNEFSLKGVDFQKFCMNGAALCALGKDCFLELAYDFVGDILWEHLEILQKE [P64Y], the abundance fitness was -0.728 ± 0.2.

Turning to GFTKEQQRLGIPKDPRQWTETHVRDWVMWAVNEFSLKGVDFQKFCMNGAALCALGKDCFLELAKDFVGDILWEHLEILQKE [P64K], the abundance fitness is -0.6 ± 0.074.

Turning to GFTKEQQRLGIPKDPRQWTETHVRDWVMWAVNEFSLKGVDFQKFCMNGAALCALGKDCFLELAMDFVGDILWEHLEILQKE [P64M], the abundance fitness was -1.06 ± 0.2.

GFTKEQQRLGIPKDPRQWTETHERDWVMWAVNEFSLKGVDFQKFCMNGAALCALGKDCFLELAPDFVGDILWEHLEILQKE [V23E]: the abundance fitness was -1.03 ± 0.26.

For the variant GFTKEQQRLGIPKDPRQWTETHVRDFVMWAVNEFSLKGVDFQKFCMNGAALCALGKDCFLELAPDFVGDILWEHLEILQKE [W26F], the abundance fitness was -0.213 ± 0.053.

GFTKEQQRLGIPKDPRQWTETHVRDEVMWAVNEFSLKGVDFQKFCMNGAALCALGKDCFLELAPDFVGDILWEHLEILQKE [W26E]: the abundance fitness was -0.84 ± 0.057.

On to GFTKEQQRLGIPKDPNQWTETHVRDWVMWAVNEFSLKGVDFQKFCMNGAALCALGKDCFLELAPDFVGDILWEHLEILQKE [R16N], for which the abundance fitness amounted to 0.031 ± 0.082.

Take GFTKEQQRLGIPKDPRQWTETHVRDWVMWAVNCFSLKGVDFQKFCMNGAALCALGKDCFLELAPDFVGDILWEHLEILQKE [E33C]: the abundance fitness is -0.132 ± 0.058.

Regarding GFTKEQQRLGIPKDPRQWTETHVRDWVMWAVNEFSLKQVDFQKFCMNGAALCALGKDCFLELAPDFVGDILWEHLEILQKE [G38Q], the abundance fitness is -0.221 ± 0.062.

For GFTKEQQRLGIPKDPRQWTETHVRDWVMWAVNEFSLKGVDFQKFCMNGAALCALGKDCFLELAPDFVGDILCEHLEILQKE [W72C], the abundance fitness was -0.62 ± 0.067.

GFTKEQQRLGIPKDPRQWTETHVRDWVMWAVNEFSLKGVDFQKFCMNGAALCALGKTCFLELAPDFVGDILWEHLEILQKE [D57T]: the abundance fitness was -0.058 ± 0.039.

For the variant GFTKEQQRLGIPKDPRQWTETHVRDWVMWAVNEFSLKGVDFQKFCMNGAALCALGKVCFLELAPDFVGDILWEHLEILQKE [D57V], the abundance fitness is -0.097 ± 0.03.

Regarding GFTKEMQRLGIPKDPRQWTETHVRDWVMWAVNEFSLKGVDFQKFCMNGAALCALGKDCFLELAPDFVGDILWEHLEILQKE [Q6M], the abundance fitness was determined as 0.024 ± 0.066.

Regarding GFTKEQQRLGIPKDPRQWTETHVRDWAMWAVNEFSLKGVDFQKFCMNGAALCALGKDCFLELAPDFVGDILWEHLEILQKE [V27A], the abundance fitness was -0.2 ± 0.031.

As to GFTKEQQRLGIPKDPRQWTETHVRDWVMWAVNEFSLKGVDFQKFCMNGNALCALGKDCFLELAPDFVGDILWEHLEILQKE [A49N], the abundance fitness was -0.139 ± 0.053.

For GFTKEQQRLGIPKDPRQWTEIHVRDWVMWAVNEFSLKGVDFQKFCMNGAALCALGKDCFLELAPDFVGDILWEHLEILQKE [T21I], the abundance fitness is -0.143 ± 0.056.

As to GFTKEQQRLGIPKDPRQWTEFHVRDWVMWAVNEFSLKGVDFQKFCMNGAALCALGKDCFLELAPDFVGDILWEHLEILQKE [T21F], the abundance fitness was -0.11 ± 0.07.

With GFTKEQQRLGIPKDPRQWTEWHVRDWVMWAVNEFSLKGVDFQKFCMNGAALCALGKDCFLELAPDFVGDILWEHLEILQKE [T21W], the abundance fitness was -0.196 ± 0.057.

As to GFTKEQQRLGIPKDPRQWTEQHVRDWVMWAVNEFSLKGVDFQKFCMNGAALCALGKDCFLELAPDFVGDILWEHLEILQKE [T21Q], the abundance fitness came out at 0.002 ± 0.053.

Regarding GFTKEQQRLGIPKDPRQWTETHVRDWVMWAVNEFSLKGVDFQKFCMNGAALCALGDDCFLELAPDFVGDILWEHLEILQKE [K56D], the abundance fitness was -0.979 ± 0.22.

For the variant GFTKEQQRLGIPKDPRQWTETHVRDWVMWAVNEFSLKGVDFQKFCMNGAALCALGRDCFLELAPDFVGDILWEHLEILQKE [K56R], the abundance fitness is -0.004 ± 0.034.

For the variant GFTKEQQRLGIPKDPRQWTETHVRDWVMWAVNEFSLKGVDFQKFCMNGAALCALGKDCFLELAPDFVGDILWEHLEITQKE [L78T], the abundance fitness was -0.289 ± 0.066.

For the variant GFTKEQQRLGIPKDPRQWTETHVRDWVMWAVNEFSLKGVDFQKFCMNGAALCALGKDCRLELAPDFVGDILWEHLEILQKE [F59R], the abundance fitness is -0.496 ± 0.038.

For the variant GFTKEQQRLGIPKDPRQWTETHVRDWVMWAVNEFSLKGVDFQKFCMNGAALCALGKDCKLELAPDFVGDILWEHLEILQKE [F59K], the abundance fitness is -0.882 ± 0.097.

As to GFTKEQQHLGIPKDPRQWTETHVRDWVMWAVNEFSLKGVDFQKFCMNGAALCALGKDCFLELAPDFVGDILWEHLEILQKE [R8H], the abundance fitness was -0.095 ± 0.058.

Regarding GFTKEQQRLGIPKDPRQWTETHVRDWVMWAVNEFSLKGYDFQKFCMNGAALCALGKDCFLELAPDFVGDILWEHLEILQKE [V39Y], the abundance fitness was -0.688 ± 0.11.

As for GFTKEQQRLGIPKDPRQWTETHVRDWVMWAVNEFSLNGVDFQKFCMNGAALCALGKDCFLELAPDFVGDILWEHLEILQKE [K37N], the abundance fitness is -0.033 ± 0.057.

Take GFTKEQQRLGIPKDPRQWTETHVRDWVMWASNEFSLKGVDFQKFCMNGAALCALGKDCFLELAPDFVGDILWEHLEILQKE [V31S]: the abundance fitness was -0.076 ± 0.03.

Take GFTKEQQRLGIPKDPRQWTETHVRDWVMWAYNEFSLKGVDFQKFCMNGAALCALGKDCFLELAPDFVGDILWEHLEILQKE [V31Y]: the abundance fitness was -0.44 ± 0.066.

As for GFTKEQQRLGIPKDPRQWTETHVRDWVMWAVNEFSLKGVDFQKFCMNGAALCALGKDCFLELAPDFEGDILWEHLEILQKE [V67E], the abundance fitness came out at 0.081 ± 0.094.

For GFTKEQQRLTIPKDPRQWTETHVRDWVMWAVNEFSLKGVDFQKFCMNGAALCALGKDCFLELAPDFVGDILWEHLEILQKE [G10T], the abundance fitness was -0.103 ± 0.047.

As to EFTKEQQRLGIPKDPRQWTETHVRDWVMWAVNEFSLKGVDFQKFCMNGAALCALGKDCFLELAPDFVGDILWEHLEILQKE [G1E], the abundance fitness is -0.042 ± 0.068.

Regarding GFTKEQQRLGIPKDPRQWTETHVRDWVMWAVNEFSLKGVDFQKFCMNNAALCALGKDCFLELAPDFVGDILWEHLEILQKE [G48N], the abundance fitness was -0.758 ± 0.2.

On to GFTKEQQRLGIPKDPRQWTETHVRDWVMWAVNEFSLKGVDFQKFCMNGAALCALGKDCFLELAPDFVGDILWEHLEILQKD [E81D], for which the abundance fitness was -0.003 ± 0.26.
